# According to PMC2913146 (Molecular cell, 2010):
# B1: PoxA (enzyme)
# chain: MSETATWQPSASIPNLLKRAAIMAEIRRFFADRGVLEVETPCMSQATVTDIHLFPFETRFVGPGHSQGINLYLMTSPEYHMKRLLAAGCGPVFQLCRSFRNEEMGRHHNPEFTMLEWYRPHYDMYRLMNEVDDLLQQVLDCQPAESLSYQQAFQRHLEIDPLSADKTQLREAAAKLDLSNIADTEEDRDTLLQLLFTMGVEPHIGKEKPTFIYHFPASQASLAQISTEDHRVAERFEVYYKGIELANGFHELTDAREQQQRFEQDNRKRAARGLPQQPIDQNLLDALAAGLPDCSGVALGVDRLVMLALGAESLADVIAFTVDRA
# Biological target: the molecule itself
# Assay: crystal structure
protein,measurement,value
B1,binding result,binds
